In publication PMC7056577 one finds 60F50 (fluence rate of blue light for 50% photooligomerization after 60 seconds) data, which are given here for one molecule.

“And” between values parts separate entries of the source, which are not always exact repeats. Identical values can stand only once.

In this experiment the target is T1, Arabidopsis CRY1 expressed in transgenic Arabidopsis (GFP-CRY1 and Myc-CRY1) (Arabidopsis), Q43125.
T1 chain: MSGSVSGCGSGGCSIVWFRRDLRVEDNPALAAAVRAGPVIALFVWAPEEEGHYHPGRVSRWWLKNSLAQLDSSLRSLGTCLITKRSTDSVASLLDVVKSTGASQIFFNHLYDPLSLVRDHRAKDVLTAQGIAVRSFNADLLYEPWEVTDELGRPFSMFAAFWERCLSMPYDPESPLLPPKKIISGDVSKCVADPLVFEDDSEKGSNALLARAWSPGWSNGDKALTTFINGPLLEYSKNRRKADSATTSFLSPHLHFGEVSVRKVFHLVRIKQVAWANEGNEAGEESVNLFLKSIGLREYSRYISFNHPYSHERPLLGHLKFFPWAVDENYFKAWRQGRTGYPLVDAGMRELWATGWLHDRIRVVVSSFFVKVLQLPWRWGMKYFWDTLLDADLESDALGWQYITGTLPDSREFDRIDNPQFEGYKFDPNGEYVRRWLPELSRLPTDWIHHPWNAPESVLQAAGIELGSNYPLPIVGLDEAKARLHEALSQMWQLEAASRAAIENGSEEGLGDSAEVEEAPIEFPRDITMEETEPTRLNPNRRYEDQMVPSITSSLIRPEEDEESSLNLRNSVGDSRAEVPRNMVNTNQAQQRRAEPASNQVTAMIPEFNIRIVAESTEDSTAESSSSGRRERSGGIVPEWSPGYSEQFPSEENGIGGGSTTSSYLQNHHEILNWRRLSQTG
Nature of the experiment: co-IP. The following applies: remark: other sources report otherwise.

B1: Arabidopsis CRY1 expressed in transgenic Arabidopsis (GFP-CRY1 and Myc-CRY1), Q43125 1-681 (natural protein)
chain: T1 chain
B1: the 60F50 (fluence rate of blue light for 50% photooligomerization after 60 seconds) is 14.9 μmolm^−2s^−1 and 16.2 μmolm^−2s^−1.
